The values that follow come from US20170306031A1 (NGM BIOPHARMACEUTICALS, published 2017).

Assay [1] deals with T1, human GFRAL expressed on cells (human, UniProt Q6UXV0 20-394).
T1 sequence: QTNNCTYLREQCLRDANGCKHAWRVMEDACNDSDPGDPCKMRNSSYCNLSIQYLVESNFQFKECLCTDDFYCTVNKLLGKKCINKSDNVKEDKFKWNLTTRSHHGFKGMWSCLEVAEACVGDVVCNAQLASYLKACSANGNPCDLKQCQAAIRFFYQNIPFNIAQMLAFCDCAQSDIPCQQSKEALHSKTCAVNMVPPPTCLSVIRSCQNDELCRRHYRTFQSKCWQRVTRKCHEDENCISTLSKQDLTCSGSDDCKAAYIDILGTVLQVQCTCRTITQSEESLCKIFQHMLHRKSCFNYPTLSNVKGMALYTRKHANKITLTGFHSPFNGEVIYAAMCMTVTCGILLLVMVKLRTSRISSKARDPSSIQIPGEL
Kind of assay: cell-based or functional assay.

Assay [2] deals with T2, mouse GFRAL expressed on cells (mouse, UniProt Q6SJE0 20-393).
T2 sequence: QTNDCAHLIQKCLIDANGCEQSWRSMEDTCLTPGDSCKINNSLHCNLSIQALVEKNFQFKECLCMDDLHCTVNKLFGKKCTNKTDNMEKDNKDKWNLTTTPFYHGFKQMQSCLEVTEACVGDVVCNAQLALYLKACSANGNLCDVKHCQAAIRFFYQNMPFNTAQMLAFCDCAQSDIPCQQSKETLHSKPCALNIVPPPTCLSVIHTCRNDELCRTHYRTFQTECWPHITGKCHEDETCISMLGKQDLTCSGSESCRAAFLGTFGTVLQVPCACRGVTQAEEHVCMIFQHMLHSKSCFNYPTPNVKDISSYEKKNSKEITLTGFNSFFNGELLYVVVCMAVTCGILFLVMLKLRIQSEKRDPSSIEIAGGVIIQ
Kind of assay: cell-based or functional assay.

The target in assay [3] is T1, human GFRAL expressed on cells. Kind of assay: cell-based or functional assay. The source holds these as a separate data set.
For assay [4], the target named is T3, human GFRAL (analyte in Biacore assays) (human, UniProt Q6UXV0 19-351, limits assumed).
T3 construct: injected in solution over captured antibody; also called hGFRAL
T3 sequence: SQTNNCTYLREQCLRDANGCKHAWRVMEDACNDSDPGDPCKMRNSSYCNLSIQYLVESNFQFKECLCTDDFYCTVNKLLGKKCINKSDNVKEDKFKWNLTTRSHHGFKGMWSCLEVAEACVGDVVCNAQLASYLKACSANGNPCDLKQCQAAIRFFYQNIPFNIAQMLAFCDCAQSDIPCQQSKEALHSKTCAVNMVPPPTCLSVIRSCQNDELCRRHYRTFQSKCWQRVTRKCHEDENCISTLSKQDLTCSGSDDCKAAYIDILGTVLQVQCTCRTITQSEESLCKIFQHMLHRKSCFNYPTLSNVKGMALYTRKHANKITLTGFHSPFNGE
Description: Biacore SPR, antibody captured, GFRAL injected. The procedure:
(§1) In addition, the binding affinity of antibodies to human and mouse GFRAL were measured. For example, antibodies were rank ordered based on their binding affinity to human GFRAL and mouse GFRAL by low resolution KD measurement by Biacore. Briefly, an anti-mouse Fc antibody (Sigma-Aldrich, St. Louis, Mo.) was immobilized on all four flow cells of a CM5 chip using amine coupling reagents (GE Healthcare LifeSciences, Piscataway, N.J.). Purified antibodies were captured (˜100 RUs) on flow cells 2, 3 and 4 using flow cell 1 as a reference. This was followed by injection of human or mouse GFRAL (25 nM in PBS-P buffer) at a flow rate of 70 μL/m in and monitoring the binding kinetics at 25° C.
(§2) Binding affinity measurements were also made in additional Biacore based assays. For example, equilibrium dissociation constant (KD) measurements were carried out with purified antibodies to evaluate their binding to human GFRAL or mouse GFRAL. As mentioned above, anti-mouse Fc antibody (Sigma-Aldrich, St. Louis, Mo.) was immobilized on all four flow cells of a CM5 chip using amine coupling reagents (GE Healthcare LifeSciences, Piscataway, N.J.). Purified antibodies were captured (˜100 RUs) on flow cells 2, 3 and 4 using flow cell 1 as a reference. This was followed by injection of human or mouse GFRAL in PBS-P buffer) at a flow rate of 70 μL/min and the binding kinetics were evaluated at 25° C.
A general note: Surface plasmon resonance follows binding to a sensor surface in real time, without labels.

In assay [5] the target is T4, mouse GFRAL (analyte in Biacore assays) (mouse, UniProt Q6SJE0 20-349, limits assumed).
T4 construct: injected in solution over captured antibody
T4 sequence: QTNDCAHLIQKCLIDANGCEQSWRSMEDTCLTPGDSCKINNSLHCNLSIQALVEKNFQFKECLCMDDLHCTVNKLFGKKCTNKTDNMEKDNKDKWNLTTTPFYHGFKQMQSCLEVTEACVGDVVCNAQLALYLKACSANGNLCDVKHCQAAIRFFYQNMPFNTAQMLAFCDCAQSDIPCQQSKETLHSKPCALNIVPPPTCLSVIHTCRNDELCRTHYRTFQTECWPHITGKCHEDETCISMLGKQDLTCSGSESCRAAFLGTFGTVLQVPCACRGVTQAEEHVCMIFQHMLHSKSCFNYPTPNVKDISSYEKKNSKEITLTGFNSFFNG
Description: Biacore SPR, antibody captured, GFRAL injected. The procedure:
as §1, §2

Assay [6] deals with T3, human GFRAL (analyte in Biacore assays). Kind of assay: Biacore SPR, antibody captured, human GFRAL injected. The procedure: Exemplary humanized anti-GFRAL antibodies identified in Example 6 were assayed for their binding affinity to human GFRAL. Binding affinity measurements were made in Biacore based assays. For example, equilibrium dissociation constant (KD) measurements were carried out with purified antibodies to evaluate their binding to human GFRAL. Using methods described in Example II, anti-mouse Fc antibody (Sigma-Aldrich, St. Louis, Mo.) was immobilized on all four flow cells of a CM5 chip using amine coupling reagents (GE Healthcare LifeSciences, Piscataway, N.J.). Purified humanized anti-GFRAL antibodies were captured (˜100 RUs) on flow cells 2, 3 and 4 using flow cell 1 as a reference. This was followed by injection of human GFRAL in PBS-P buffer) at a flow rate of 70 μL/min and the binding kinetics were evaluated at 25° C.

B1: antibody designated 12A3 (antibody, V domains shown)
VH: QIQLVQSGPELKKPGETVKISCKASGYPFTIYGMNWVEQAPGKGLKWMGWINTYSGVPTYADDFKGRFAFSLETSASTAYLQINNLKDEDTATYFCASATGNYWGQGTTLTVSS
VL: DIQMTQSPSSLSASLGERVSLTCRASQDIGSSLNWLQQEPDGTIKRLIYATSSLDSGVPKRFSGSRSGSDYSLTISSLESEDFVDYYCLQYASSPYTFGGGTKVEIK
notes: mouse hybridoma monoclonal
B1: in assay [1], the “IC50, ELK1-luciferase reporter (hGFRAL/hRET)” value (“IC50 … (hGFRAL/hRET)” below) turned out to be 4.99 nM. In assay [2], the “IC50, ELK1-luciferase reporter (mGFRAL/mRET)” value (“IC50 … (mGFRAL/mRET)” below) was determined as 0.933 nM. Besides, the “IC50, ERK phosphorylation in U2OS hGFRAL/hRET cells” value (“IC50 … in U2OS hGFRAL/hRET cells” below) in assay [3] was 0.54 nM. Also, the figures for the equilibrium dissociation constant (Kd) in assay [4] and in assay [5] were under 0.1 nM and 5.7 nM, respectively. The koff in assay [4] is about 1e-05 s⁻¹; in assay [5], 0.00216 s⁻¹.

B2: antibody designated 2B8 (antibody, V domains shown)
VH: QIQLVQSGPELKKPGETVKISCKASGYTFTTYGMSWVKQAPGKIFKWMGWINTYSGVPTFVDDFRGRFAFSLETSASTAYLQIGNLKNEDTATYFCARRSSYYPYWYFDVWGTGTTVTVSS
VL: DIQMTQSPASLSASVGETVTITCRPSENIYSYLTWFQQEQGKSPQLLVYNAQTLAEGVPSRFSGSGSGTHFSLKINSLQPEDFGTYYCQHYYGYPFTFGSGTKLEIK
notes: mouse hybridoma monoclonal
Turning to B2, in assay [1], the “IC50 … (hGFRAL/hRET)” value came to 1.92 nM. Also, in assay [2], the “IC50 … (mGFRAL/mRET)” value is 2.45 nM. Moreover, the “IC50 … in U2OS hGFRAL/hRET cells” value in assay [3] stood at 0.22 nM. The same molecule yielded a Kd in assay [4] of 0.73 nM. In assay [5], the dissociation constant Kd came to 3.76 nM and the koff worked out at 0.013 s⁻¹.

B3: humanized anti-GFRAL antibody HC-375g/LC-375j (antibody, IgG1, V domains shown)
VH: QVQLVQSGAEVKKPGSSVKVSCKASGYTFTDYYINWVRQAPGQGLEWIARIYPGNGNTYHNEKFKGRATLTADKSTSTAYMELSSLRSEDTAVYYCAREGLYYDYDRYFDYWGQGTLVTVSS
VL: DIVLTQSPLSLPVTLGQPASISCRASESVDTYGNSFMHWYQQRPGQSPRLLIYLASNLESGVPDRFSGSGSRTDFTLKISRVEAEDVGVYYCHQNNEDPPAFGGGTKVEIK
notes: humanized 5F12
Regarding B3, in assay [6], binding was characterised by a dissociation constant (Kd) of 0.057 nM.

B4: antibody designated 8D8 (antibody, V domains shown)
VH: QVQLKESGPGLVAPSQSLSITCTVSGFSLSRYSVHWVRQPPGKGLEWLGMIWGFGSTDYNSALKSRLSITKDNSKSQFFLKMNSLQTDDTAMYYCARIHTTAGSYWGQGTLVTVSA
VL: DIVMTQSQKFMSTSIGDRVSVTCKASQNVGTNVAWYQQKPGQSPKALVYSTSYRYSGVPDRFTGSGSGTDFTLTISNVQSEDLAEYFCHQYNSYPLTFGAGTKLELK
notes: mouse hybridoma monoclonal
On to B4, for which the “IC50 … (hGFRAL/hRET)” value in assay [1] was 2.11 nM. Besides, in assay [2], the “IC50 … (mGFRAL/mRET)” value came out at 1.42 nM. Also, the “IC50 … in U2OS hGFRAL/hRET cells” value in assay [3] came out at 0.63 nM. In assay [4], the affinity, expressed as Kd, was 0.46 nM and the off-rate constant (koff) was 0.000124 s⁻¹. In assay [5], this molecule had a dissociation constant Kd of 8.17 nM and a koff of 0.00281 s⁻¹.

B5: antibody designated 1C1 (antibody, V domains shown)
VH: QMQLKQSGPGLVQPSQSLSITCTVSGFSLNDYGVHWIRQSPGKGLEWLGVIWSGGRTDYNAAFISRLSISKDNSKSQVFFKMSSLQPQDTAIYYCARWALYFLYGGSMDYWGQGTSVTVSS
VL: DVVLTQTPLSLPVSPGDQASISCRSSQSLVHSSGITYLHWYLQKPGQSPKLLIYKLSNRFSGVPDRFSGSGSGTDFTLKISRVEAEDLGVYFCSQSTHVPPWTFGGGTKLEIK
notes: mouse hybridoma monoclonal
Take B5: the “IC50 … (hGFRAL/hRET)” value in assay [1] came to 8.64 nM. Also, the “IC50 … (mGFRAL/mRET)” value in assay [2] was found to be 1.19 nM. For the same molecule, the “IC50 … in U2OS hGFRAL/hRET cells” value in assay [3] is 0.61 nM. In assay [4], this molecule returned a dissociation constant (Kd) of under 0.1 nM. Also, in assay [5], the affinity, expressed as Kd, was 3.68 nM and the koff worked out at 0.0025 s⁻¹.

B6: antibody designated 2B3 (antibody, V domains shown)
VH: EVKLVESGGGLVQPGGSLKLSCAASGFTFSDYFMFWVRQTPEKRLEWVAYISNDGDSTYYPDTVQGRFTISRDNAKNTLYLQMSRLRSEDTAMYYCTRQGAQATLDYWGQGTTLTVSS
VL: QIVLTQSPAIMSASLGEEITLTCSASSSVFYMHWYQQKSGTSPKLLIYSTSNLASGIPSRFSGSGSGTFYSLTISSVEAEDAADYYCHQWSSTFGGGTKLEIK
With B6, the “IC50 … (hGFRAL/hRET)” value in assay [1] was found to be 7.12 nM. Moreover, the “IC50 … (mGFRAL/mRET)” value in assay [2] stood at 7.76 nM. In addition, the “IC50 … in U2OS hGFRAL/hRET cells” value in assay [3] was 1.48 nM.

B7: antibody designated 25M22 (antibody, V domains shown)
VH: QVQLQQSGPDLVKPGASVKISCKASGYTFTSYWVNWMKQRPGKGLEWIGRIYPGDGDTNYNGKFKGKATLTADKSSSTAYMQLSSLTSEDSAVYFCARAYLLRLRRTGYYAMDYWGQGTSVTVSS
VL: DVVLTQTPLSLPVNIGDQASISCKSTKSLLNSDEFTYLDWYLQKPGQSPQLLIFLVSNRFSGVPDRFSGSGSGTDFTLKISRVEAEDLGVYYCFQSNYLPYTFGGGTKLEIK
notes: mouse hybridoma monoclonal
Consider B7, for which the “IC50 … (hGFRAL/hRET)” value in assay [1] worked out at 2.89 nM. Further, the “IC50 … (mGFRAL/mRET)” value in assay [2] amounted to 1.11 nM. The “IC50 … in U2OS hGFRAL/hRET cells” value in assay [3] was determined as 0.53 nM. In assay [4], this molecule registered a Kd of under 0.1 nM and a koff of about 1e-05 s⁻¹. Further, in assay [5], the equilibrium dissociation constant (Kd) was found to be 4.2 nM and the off-rate (koff) is 0.0001 s⁻¹.

B8: antibody designated 19K19 (antibody, V domains shown)
VH: QVQLQQSGPDLVKPGASVKISCKASGYAFTSYWMNWVKQRPGKGLEWIGRIYPGDGDTNYNGKFKGKATLTADKSSSTAYMQLSSLTSEDSAVYFCARAYLLRLRRTGYYAMDYWGQGTSVTVSS
VL: DVVLTQTPLSLPVNIGDQASISCKSTKSLLNSDEFTYLDWYLQKPGQSPQLLIYLVSNRFSGVPDRFSGSGSGTDFTLKISRVEAEDLGVYYCFQSNYLPYTFGGGTKLEIK
notes: mouse hybridoma monoclonal
B8: the “IC50 … (hGFRAL/hRET)” value in assay [1] was found to be 3.88 nM. In assay [2], the “IC50 … (mGFRAL/mRET)” value stood at 0.895 nM. Also, in assay [3], the “IC50 … in U2OS hGFRAL/hRET cells” value was found to be 0.61 nM. In assay [4], this molecule yielded a Kd of 0.21 nM and an off-rate constant (koff) of 0.000135 s⁻¹. In assay [5], the Kd came to 4.7 nM and the off-rate (koff) came to 0.0034 s⁻¹.

For orientation: Kd means a measure of binding affinity in units of concentration. Read a high Kd as a looser complex. For orientation: koff means a measure of how fast the partners let go of each other. Read a high koff as fast dissociation.
